Common to all, as to test: SPR, Ab captured, ECD-His analyte
For orientation: In SPR one partner is held on a chip, and binding of the other changes the refractive index at the surface.

Test [1] has as its target T1, human SIRPαV1 extracellular domain + His-tag (NP_542970.1) (human, UniProt P78324 31-373).
T1 construct: also called hSIRPαV1; HuSIRPαV1
On the procedure: (§1) The binding affinity of anti-SIRPα antibodies to the various SIRPα analytes is determined by surface plasmon resonance (SPR) using a ProteOn XPR36 (Bio-Rad). The running buffer for this experiment and all dilutions (except where stated) are done in 1×HBS-EP+. […] The sensorchip is deactivated with 1M ethanolamine HCl for 420 sec at a flowrate of 10 μl/min.
(§2) The analyte is injected over the captured antibody for 300 sec at a flowrate of 30 μl/min. The dissociation is done for 600 sec. Two-fold serial dilutions of each SIRP protein (Extracellular Domain+His-Tag) are injected as analyte with the highest concentrations indicated in table 36 below.

Test [2] addresses T2, human SIRPαV2 extracellular domain + His-tag (CAA71403.1) (human, UniProt P78324 31-373).
T2 construct: also called hSIRPαV2; HuSIRPαV2
On the procedure:
as §1, §2

For test [3], the target named is T3, human SIRPβ1 extracellular domain + His-tag (NP_006056.2) (human, UniProt O00241 30-371).
T3 construct: also called hSIRPβ1; HuSIRPβ1
As to the method: as §1, §2

In test [4] the target is T4, human SIRPβL/SIRPβ1v3 extracellular domain + His-tag (NP_001129316.1) (human, UniProt Q5TFQ8 30-371).
T4 construct: also called hSIRPβ1v3; HuSIRPβ1v3
On the procedure:
as §1, §2

In test [5] the target is T5, human SIRPγ extracellular domain + His-tag (NP_061026.2) (human, UniProt Q9P1W8 29-360).
T5 construct: also called hSIRPγ; HuSIRPγ
As to the method:
as §1, §2

For orientation: Kd means the concentration at which binding is half-saturated.

T1 sequence (P78324 other isoform, or with tags, fused parts or gaps): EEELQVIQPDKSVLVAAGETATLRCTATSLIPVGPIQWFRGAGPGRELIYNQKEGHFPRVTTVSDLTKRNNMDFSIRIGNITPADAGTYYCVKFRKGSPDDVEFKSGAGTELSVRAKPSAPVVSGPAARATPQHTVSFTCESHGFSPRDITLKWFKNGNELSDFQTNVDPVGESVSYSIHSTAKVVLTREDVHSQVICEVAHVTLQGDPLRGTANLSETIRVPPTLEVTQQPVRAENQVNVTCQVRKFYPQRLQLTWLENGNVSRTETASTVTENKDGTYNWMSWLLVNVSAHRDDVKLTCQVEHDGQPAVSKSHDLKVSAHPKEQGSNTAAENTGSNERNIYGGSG
T2 sequence (P78324 other isoform, or with tags, fused parts or gaps): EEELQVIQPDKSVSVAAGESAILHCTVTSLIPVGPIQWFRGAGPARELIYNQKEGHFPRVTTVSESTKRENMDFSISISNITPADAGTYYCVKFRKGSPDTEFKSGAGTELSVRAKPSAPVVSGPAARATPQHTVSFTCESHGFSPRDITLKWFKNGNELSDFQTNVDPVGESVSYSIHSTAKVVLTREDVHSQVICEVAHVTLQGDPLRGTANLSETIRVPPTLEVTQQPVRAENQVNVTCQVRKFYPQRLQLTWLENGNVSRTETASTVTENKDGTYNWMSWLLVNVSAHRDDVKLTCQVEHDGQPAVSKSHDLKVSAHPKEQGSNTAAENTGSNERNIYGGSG
T3 sequence (O00241 other isoform, or with tags, fused parts or gaps): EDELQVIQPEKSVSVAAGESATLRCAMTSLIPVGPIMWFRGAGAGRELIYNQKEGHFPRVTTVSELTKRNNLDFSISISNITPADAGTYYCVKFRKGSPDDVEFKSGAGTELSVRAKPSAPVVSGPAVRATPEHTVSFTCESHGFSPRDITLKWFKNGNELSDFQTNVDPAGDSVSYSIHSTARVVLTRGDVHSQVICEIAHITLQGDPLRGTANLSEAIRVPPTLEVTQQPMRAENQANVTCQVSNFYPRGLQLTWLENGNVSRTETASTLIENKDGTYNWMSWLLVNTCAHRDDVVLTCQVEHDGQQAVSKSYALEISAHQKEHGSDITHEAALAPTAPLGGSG
T4 sequence (Q5TFQ8 other isoform, or with tags, fused parts or gaps): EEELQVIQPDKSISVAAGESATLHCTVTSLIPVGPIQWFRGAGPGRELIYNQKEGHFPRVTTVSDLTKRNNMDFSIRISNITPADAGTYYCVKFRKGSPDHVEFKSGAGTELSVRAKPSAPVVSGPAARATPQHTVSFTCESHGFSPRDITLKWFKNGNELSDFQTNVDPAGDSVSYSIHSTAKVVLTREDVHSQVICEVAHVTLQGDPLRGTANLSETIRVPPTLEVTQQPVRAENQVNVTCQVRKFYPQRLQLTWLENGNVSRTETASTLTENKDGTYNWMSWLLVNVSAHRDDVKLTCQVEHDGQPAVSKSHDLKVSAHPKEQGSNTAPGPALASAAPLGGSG
T5 sequence (Q9P1W8 29-360): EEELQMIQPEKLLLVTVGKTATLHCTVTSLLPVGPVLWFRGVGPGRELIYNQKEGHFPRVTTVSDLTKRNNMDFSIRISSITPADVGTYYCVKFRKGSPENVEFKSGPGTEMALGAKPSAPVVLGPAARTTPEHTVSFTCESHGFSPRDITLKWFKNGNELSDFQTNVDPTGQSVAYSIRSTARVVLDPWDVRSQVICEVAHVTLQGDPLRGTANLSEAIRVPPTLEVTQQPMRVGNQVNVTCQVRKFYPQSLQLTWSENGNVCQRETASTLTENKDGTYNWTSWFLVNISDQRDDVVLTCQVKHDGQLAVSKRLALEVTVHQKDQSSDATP

B1: Antibody E6 (antibody, human IgG1, kappa, L234A L235A, V domains shown)
VH: QVQLQESGPGLVRPSETLSLTCTVSGGSIRNYYWSWIRQPPGKGLEWIGFIYYNGRTFYNPSLKSRVTISLDKSKNQFSLKMTSVTAADTAVYYCARVRAYSGIGLDGTDVWGQGTTVTVSS
VL: DIVMTQSPLSLPVTPGEPASISCKSSQSLLYSNGYAYLDWYLQRPGQSPQLLIYLGSNRASGVPDRFSGSGSGTDFTLKISRVEAEDVGVYYCMQALQTPLTFGGGTKVEIKR
Turning to B1, the Kd in test [1] is 1.03 nM; in test [2], 0.875 nM; in test [4] it was 2.72 nM. Besides, the binding result in test [3] and in test [5] was “no binding (tested: 1000 nM)” in each case.

B2: Antibody E9 (antibody, human IgG1, kappa, L234A L235A, V domains shown)
VH: QVQLQESGPGLVRPSETLSLTCTVSGGSIRNYYWSWIRQPPGKGLEWIGFIYYNGRTFYNPSLKSRVTISLDMSINQFSLKMTSVTAADTAVYYCARVRAYSGIGLDGTDVWGQGTTVTVSS
VL: DIVMTQSPLSLPVTPGEPASISCKSSQSLLYSNAYNYLDWYLQRPGQSPQLLIYLGSNRASGVPDRFSGSGSGTDFTLKISRVEAEDVGVYYCMQALQTPLTFGGGTKVEIKR
For the molecule B2, the Kd in test [1] worked out at 1.22 nM; in test [2], 0.941 nM; in test [4] it was 3.16 nM. Further, the binding result in test [3] and in test [5] was “no binding (tested: 1000 nM)” each time.

B3: Antibody E7 (antibody, human IgG1, kappa, L234A L235A, V domains shown)
VH: QVQLQESGPGLVRPSETLSLTCTVSGGSIRNYYWSWIRQPPGKGLEWIGFIYYNGRTFYNPSLKSRVTISLDTSKNQFSLKMTSVTAADTAVYYCARVRAYSGIGLDGTDVWGQGTTVTVSS
VL: DIVMTQSPLSLPVTPGEPASISCKSSQSLLYSNGYAYLDWYLQRPGQSPQLLIYQGSNRASGVPDRFSGSGSGTDFTLKISRVEAEDVGVFYCMQALQTPLTFGGGTKVEIKR
For the molecule B3, the Kd came to 1.2 nM in test [1], 1.18 nM in test [2], 874 nM in test [3] and 2.21 nM in test [4]. Further, in test [5], the binding result was “no binding (tested: 1000 nM)”.

B4: Antibody E15 (antibody, human IgG1, kappa, L234A L235A, V domains shown)
VH: QVQLQESGPGLVRPSETLSLTCTVSGGSIRNYYWSWIRQPPGKGLEWIGFIYYTGRTFYNPSLKSRVTISLDMSINQFSLKMTSVTAADTAVYYCARVRAYSGIGLDGTDVWGQGTTVTVSS
VL: DIVMTQSPLSLPVTPGEPASISCKSSQSLLYSNGYAYLDWYLQRPGQSPQLLIYLGSNRASGVPDRFSGSGSGTDFTLKISRVEAEDVGVYYCMQALQTPLTFGGGTKVEIKR
On to B4, for which the Kd in test [1] is 1.91 nM; in test [2], 0.737 nM; in test [4] it was 4.56 nM. In addition, the binding result in test [3] and in test [5] was “no binding (tested: 1000 nM)” throughout.

B5: Antibody E17 (antibody, human IgG1, kappa, L234A L235A, V domains shown)
VH: QVQLQESGPGLVRPSETLSLTCTVSGGSIRNYYWSWIRQPPGKGLEWMGFIYDNGRTFYNPSLKSRVTISLDMSMNQFSLKMTSVTAADTAVYYCARVRAYSGIGLDGTDVWGQGTTVTVSS
VL: DIVMTQSPLSLPVTPGEPASISCKSSQSLLYSNAYNYLDWYLQRPGQSPQLLIYLGSNRASGVPDRFSGSGSGTDFTLKISRVEAEDVGVYYCMQALQTPLTFGGGTKVEIKR
Take B5: the Kd stood at 2.36 nM in test [1], 0.797 nM in test [2] and 5.32 nM in test [4]. Further, the binding result in test [3] and in test [5] was “no binding (tested: 1000 nM)” in each case.

B6: Antibody E18 (antibody, human IgG1, kappa, L234A L235A, V domains shown)
VH: QVQLQESGPGLVRPSETLSLTCTVSGGSIRNYYWSWIRQPPGKGLEWIGFIYYTGRTFYNPSLKSRVTISLDMSKNQFSLKMTSVTAADTAVYYCARVRAYSGIGLDGTDVWGQGTTVTVSS
VL: DIVMTQSPLSLPVTPGEPASISCKSSQSLLYSNGYAYLDWYLQRPGQSPQLLIYLGSNRASGVPDRFSGSGSGTDFTLKISRVEAEDVGVYYCMQALQTPLTFGGGTKVEIKR
Take B6: the values for the Kd in test [1], in test [2] and in test [4] were 2.46 nM, 0.898 nM and 4.8 nM, respectively. Moreover, the binding result in test [3] and in test [5] was “no binding (tested: 1000 nM)” each time.

B7: Antibody E12 (antibody, human IgG1, kappa, L234A L235A, V domains shown)
VH: QVQLQESGPGLVRPSETLSLTCTVSGGSIRNYYWSWIRQPPGKGLEWIGFIYYNGRTFYNPSLKSRVTISLDMSKNQFSLKMTSVTAADTAVYYCARVRAYSGIGLDGTDVWGQGTTVTVSS
VL: DIVMTQSPLSLPVTPGEPASISCKSSQSLLYSNAYNYLDWYLQRPGQSPQLLIYLGSNRASGVPDRFSGSGSGTDFTLKISRVEAEDVGVYYCMQALQTPLTFGGGTKVEIKR
With B7, the Kd in test [1] came to 1.67 nM; in test [2], 1.26 nM; in test [3] it was 1670 nM; in test [4], 3.43 nM. Moreover, the binding result in test [5] is “no binding (tested: 1000 nM)”.

B8: Antibody E13 (antibody, human IgG1, kappa, L234A L235A, V domains shown)
VH: QVQLQESGPGLVRPSETLSLTCTVSGGSIRNYYWSWIRQPPGKGLEWIGFIYYTGRTFYNPSLKSRVTISLDMSINQFSLKMTSVTAADTAVYYCARVRAYSGIGLDGTDVWGQGTTVTVSS
VL: DIVMTQSPLSLPVTPGEPASISCKSSQSLLYSNGYAYLDWYLQRPGQSPQLLIYQGSNRASGVPDRFSGSGSGTDFTLKISRVEAEDVGVFYCMQALQTPLTFGGGTKVEIKR
In the case of B8, the figures for the dissociation constant (Kd) in test [1], in test [2] and in test [4] were 1.7 nM, 0.69 nM and 4.17 nM, respectively. Besides, the binding result in test [3] and in test [5] was “no binding (tested: 1000 nM)” each time.

B9: Antibody E20 (antibody, human IgG1, kappa, L234A L235A, V domains shown)
VH: QVQLQESGPGLVRPSETLSLTCTVSGGSIRNYYWSWIRQPPGKGLEWIGFIYYTGRTFYNPSLKSRVTISLDMSINQFSLKMTSVTAADTAVYYCARVRAYSGIGLDGTDVWGQGTTVTVSS
VL: DIVMTQSPLSLPVTPGEPASISCKSSQSLLYSNAYNYLDWYLQRPGQSPQLLIYLGSNRASGVPDRFSGSGSGTDFTLKISRVEAEDVGVYYCMQALQTPLTFGGGTKVEIKR
Take B9: the Kd in test [1] came to 3.42 nM; in test [2], 1.11 nM; in test [3], 435 nM; in test [4] it was 8.48 nM. In test [5], the binding result is recorded as “no binding (tested: 1000 nM)”.

B10: Antibody E8 (antibody, human IgG1, kappa, L234A L235A, V domains shown)
VH: QVQLQESGPGLVRPSETLSLTCTVSGGSIRNYYWSWIRQPPGKGLEWMGFIYDNGRTFYNPSLKSRVTISLDMSMNQFSLKMTSVTAADTAVYYCARVRAYSGIGLDGTDVWGQGTTVTVSS
VL: DIVMTQSPLSLPVTPGEPASISCKSSQSLLYSNGYAYLDWYLQRPGQSPQLLIYQGSNRASGVPDRFSGSGSGTDFTLKISRVEAEDVGVFYCMQALQTPLTFGGGTKVEIKR
As to B10, the Kd in test [1] worked out at 1.21 nM; in test [2], 0.542 nM; in test [3] it was 2420 nM; in test [4], 2.58 nM. Further, in test [5], the binding result was “no binding (tested: 1000 nM)”.

B11: Antibody E14 (antibody, human IgG1, kappa, L234A L235A, V domains shown)
VH: QVQLQESGPGLVRPSETLSLTCTVSGGSIRNYYWSWIRQPPGKGLEWIGFIYYNGRTFYNPSLKSRVTISLDKSKNQFSLKMTSVTAADTAVYYCARVRAYSGIGLDGTDVWGQGTTVTVSS
VL: DIVMTQSPLSLPVTPGEPASISCKSSQSLLYSNAYNYLDWYLQRPGQSPQLLIYLGSNRASGVPDRFSGSGSGTDFTLKISRVEAEDVGVYYCMQALQTPLTFGGGTKVEIKR
As to B11, the figures for the Kd in test [1], in test [2] and in test [4] were 1.84 nM, 1.36 nM and 4.8 nM, respectively. In addition, the binding result in test [3] and in test [5] was “no binding (tested: 1000 nM)” throughout.

B12: Antibody E19 (antibody, human IgG1, kappa, L234A L235A, V domains shown)
VH: QVQLQESGPGLVRPSETLSLTCTVSGGSIRNYYWSWIRQPPGKGLEWIGFIYYTGRTFYNPSLKSRVTISLDMSKNQFSLKMTSVTAADTAVYYCARVRAYSGIGLDGTDVWGQGTTVTVSS
VL: DIVMTQSPLSLPVTPGEPASISCKSSQSLLYSNGYAYLDWYLQRPGQSPQLLIYQGSNRASGVPDRFSGSGSGTDFTLKISRVEAEDVGVFYCMQALQTPLTFGGGTKVEIKR
On to B12, for which the equilibrium dissociation constant (Kd) came to 2.52 nM in test [1], 0.97 nM in test [2], 1660 nM in test [3] and 4.74 nM in test [4]. In addition, the binding result in test [5] was “no binding (tested: 1000 nM)”.

B13: Antibody E21 (antibody, human IgG1, kappa, L234A L235A, V domains shown)
VH: QVQLQESGPGLVRPSETLSLTCTVSGGSIRNYYWSWIRQPPGKGLEWIGFIYYTGRTFYNPSLKSRVTISLDMSKNQFSLKMTSVTAADTAVYYCARVRAYSGIGLDGTDVWGQGTTVTVSS
VL: DIVMTQSPLSLPVTPGEPASISCKSSQSLLYSNAYNYLDWYLQRPGQSPQLLIYLGSNRASGVPDRFSGSGSGTDFTLKISRVEAEDVGVYYCMQALQTPLTFGGGTKVEIKR
In the case of B13, the Kd was 4.46 nM in test [1], 1.39 nM in test [2] and 8.84 nM in test [4]. Moreover, the binding result in test [3] and in test [5] was “no binding (tested: 1000 nM)” each time.

The record behind these values is US20230012273A1 (Boehringer Ingelheim, published 2023).
